Results as given in IntAct's records for PubMed 20126385.

B1: Adenomatous polyposis coli protein-related protein 1 (Caenorhabditis elegans), Q21227-1 (parent)
chain: MSSSSSDENETTIHRTGSNTGGSGIYSQPRAGSSKRTSNVRHDVSDVDDEEEHYARFREDTAIEVDDAITVLLSSLHFEHKRDIVPTDEDDNKLRELHEKIFALITSESDVNRKRRLKKALPASNCVREQVYYLRRKPSTPPASYYHRLNAALHTIVKESFGEEYRKVATVLGLVEALAEVLILEVHTFGINETNPGEHRNIRKLIANALTNLTYGQIHSKRRLCSYDGFIRCVVRIVIESPNITQVYAGLIRNLSWNADSGMSEALQPTVHALSIAAVHAHTHRFDVTATLSALWNLAGHSVENKRTICDTPNCLKVLASLLSPDARFTSLVDSATGILKYVSQYLANTSTHLELRSLLITRMLTLLKSASFTCVTNTLGAIANLIVKDPHMQQMIRQDMAAVQQLNVLRNSNRDDIRTAVKSVLNTLNQPCSHRYGDMSHSVGGGATGMQMLSEPQLQMQTSHHAYHGTASPRLLSLRATRASPGKYIQPQAQQQLIQTPQVDQRSSSLPRHFAVQRNGFVMAQSYNQQMDQHQQQQMIYQLQQQQQIMFQTEDQAQMEHHQQIMYLQQQQQQFHQIQQQQQMQKAQEADPVPPTDDDLDIPTSTVMGTRSNSERSLGSMNPGSVMTNWNSSLDTAANSSRALSPVSYNDIPASPTMCAQVFNLPKSTESEHHQLTSQQQNTTHYSSGSANTMTRSDGATTVPMDNIITPTYAILNPILVHEQTPNGTVPRKTSEELDSPDDVLPGPSLEEEEGDYAIIGGAAQKTDDELLTRSIQSEMPTSSSTPKMKVSPRLNGFFSPTQKTTSSPAWSHPDTSPIPKSSSHRTQPNRRQDASDADRLLMESIMSEMPKSRIISPRLAGTQQYLEPEPERRSHSKNEEADRRDAFTASHEPSDHNGIDVARGSDWSPQQQLHRMESLESQASSEDSFGLTAEEPNSSTSGAAANTMRFDDEIDASLPMDCVDDDDYDYTYDHFEDYEDEEDPDATQFDDGVDAQLTIDCSMISSGSGSSQRNETTTTSRDSKALATSTPKGSASSLPGVRQATRVSTNGKSRLPVPKTNGSLVDKNPKPIIASRRPRLPPKPTLLKDKHYPEEDSIENQTRDDTIYVNAPVVEAEQERIYMNALKQQKNIEQSPSIGNGSPIAKSAIVTPYNYQKPPFTGRNNGEMSNEKSVTPNPKQMLVTIV
partner: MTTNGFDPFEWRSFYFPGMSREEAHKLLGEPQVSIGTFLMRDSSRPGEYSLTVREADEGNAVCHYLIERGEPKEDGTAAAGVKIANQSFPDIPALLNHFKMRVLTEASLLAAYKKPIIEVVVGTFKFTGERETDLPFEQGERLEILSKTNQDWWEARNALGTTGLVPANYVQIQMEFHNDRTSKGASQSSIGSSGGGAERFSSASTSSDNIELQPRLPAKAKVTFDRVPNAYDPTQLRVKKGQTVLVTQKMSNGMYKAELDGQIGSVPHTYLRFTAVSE

Variants of: B1
Details: with ced2_caeel ced-2, Q9NHC3

effect of a mutation on the interaction | Variant
decreasing interaction | Y489A
